Literature values, collected in PMC10380471.
Like-named read-outs stand apart in the source and are kept apart here. One block for each substance: values may come before it.

Tests used:
consensus peptide [1] = target: consensus peptide
consensus peptide [2] = target: consensus peptide; remark: listed apart in the source
consensus peptide [3] = target: consensus peptide; remark: listed apart in the source

Chain of Pim-1 (P11309 whole entry): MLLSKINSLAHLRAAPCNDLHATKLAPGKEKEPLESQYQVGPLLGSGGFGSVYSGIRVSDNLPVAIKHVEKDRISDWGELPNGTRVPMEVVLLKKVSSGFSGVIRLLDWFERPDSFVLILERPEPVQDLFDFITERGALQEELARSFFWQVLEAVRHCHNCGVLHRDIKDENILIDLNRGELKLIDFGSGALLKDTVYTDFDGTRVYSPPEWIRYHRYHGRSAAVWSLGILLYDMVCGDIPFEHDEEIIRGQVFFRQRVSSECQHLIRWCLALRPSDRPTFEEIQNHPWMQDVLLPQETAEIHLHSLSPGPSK
Chain of Pim-2 (Q9P1W9 whole entry): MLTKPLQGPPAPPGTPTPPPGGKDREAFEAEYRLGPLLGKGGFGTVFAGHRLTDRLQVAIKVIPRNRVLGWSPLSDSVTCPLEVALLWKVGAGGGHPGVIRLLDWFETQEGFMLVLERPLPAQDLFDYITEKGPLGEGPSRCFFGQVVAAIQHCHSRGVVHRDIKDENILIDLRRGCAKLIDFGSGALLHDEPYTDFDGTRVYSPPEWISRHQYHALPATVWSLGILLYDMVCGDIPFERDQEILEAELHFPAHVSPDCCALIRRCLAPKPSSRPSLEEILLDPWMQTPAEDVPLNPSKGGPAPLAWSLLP

Kd (consensus peptide [1]): 58 nM
Substance: Pim-1 (from UniProt P11309)

Kd (consensus peptide [2]): 640 nM
Substance: Pim-2 (from UniProt Q9P1W9)

Kd (consensus peptide [3]): 39 nM
Substance: Pim-3 (from UniProt Q86V86)
